Laboratory results reported in patent publication US20150210738, “MOLECULAR SLEDS AND USES […]” (The Broad Institute, Inc., published 2015).
No end group written: not given here.

T1: pVIc (C-terminal peptide of pVI) (Human adenovirus 2, UniProt P03274)
T1 chain: GVQSLKRRRCF

T2: 8-Actin-C (beta-actin C-terminal peptide)
T2 chain: SIVHRKC(Cy3B)F

T3: random peptide (scrambled pVIc) (synthetic)
T3 chain: SFRRCGLRQVK


Key:
[1] = molecular target: streptavidin-Alexa Fluor 546 (UniProt P22629 P22629:25-183); experiment: FRET; streptavidin alone does not bind; conditions: tags: Alexa Fluor 546; Invitrogen; chain copies: 4; label: 5'-fluorescein
Sequence of streptavidin-Alexa Fluor 546 (P22629 25-183, one chain of several): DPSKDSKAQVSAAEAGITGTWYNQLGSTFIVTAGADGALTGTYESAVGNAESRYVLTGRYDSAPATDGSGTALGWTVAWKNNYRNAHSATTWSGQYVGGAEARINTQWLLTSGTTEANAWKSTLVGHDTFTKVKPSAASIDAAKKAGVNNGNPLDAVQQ
Description: The relative fluorescence intensity is the fluorescence intensity at a specific concentration of acceptor divided by I₀ which is the initial fluorescence intensity, i.e. the intensity of the donor in the absence of acceptor. The line through the closed circles represents the nonlinear regression fit of the experimental data to a 1:1 ligand-receptor model. […] Both curves were corrected for inner filter effects, which were less than 10% at the highest concentration of acceptor.
Steady state fluorescence measurements were measured with an ISS PC1 spectrofluorometer (ISS, Champaign, Ill.) with a 300-W xenon arc lamp and 19 amp lamp current. […] The solution was mixed and allowed to equilibrate for 2 minutes before measuring the fluorescence intensity for a maximum of 10 seconds (corresponds to an average of eleven measurements).

[2] = molecular target: (pVIc-biotin):streptavidin complex (Human adenovirus 2 / Streptomyces …, UniProt P03274;P22629 P03274:240-250,P22629:25-183); experiment: FRET quenching, 20 mM Na phosphate pH 7.5, 0.05% DDM; conditions: tags: pVIc Cys10' PEG-biotin, streptavidin-Alexa Fluor 546 (Invitrogen); label: 5'-fluorescein
Sequence of (pVIc-biotin):streptavidin complex (P22629 25-183, one chain of several): as above

[3] = molecular target: T1, pVIc (C-terminal peptide of pVI); experiment: FP; Cy3B-pVIc, 20 mM Hepes pH 7, 0.025% DDM, 10 mM NaCl; 7 bp site; conditions: protein: synthetic; tags: synthetic peptide; Cy3B at Cys10' in pH 7 and sliding assays; label: 5'-fluorescein (unlabeled with Cy3B-labeled protein)
[4] = molecular target: pVI (precursor to protein VI) (Human adenovirus 2, UniProt P03274 P03274:1-250); experiment: FP; 0.02 M NaCl, pH 8; 155, 328, 449, 1044 nM at 0.03, 0.04, 0.05, 0.06 M NaCl; 2.9 ion pairs; conditions: label: 5'-fluorescein (unlabeled with Cy3B-labeled protein)
Sequence of pVI (precursor to protein VI) (P03274 whole entry, one chain of several): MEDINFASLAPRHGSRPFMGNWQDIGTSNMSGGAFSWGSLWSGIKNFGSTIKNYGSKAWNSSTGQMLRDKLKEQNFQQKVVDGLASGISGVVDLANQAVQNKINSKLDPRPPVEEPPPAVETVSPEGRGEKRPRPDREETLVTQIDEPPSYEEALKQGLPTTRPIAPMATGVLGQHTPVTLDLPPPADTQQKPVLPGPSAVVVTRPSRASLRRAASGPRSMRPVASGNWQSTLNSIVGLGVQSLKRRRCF

[5] = molecular target: T2, 8-Actin-C (beta-actin C-terminal …); experiment: FP; Cy3B-peptide, pH 7; conditions: protein: synthetic; tags: synthetic peptide; Cy3B at Cys7'; label: 5'-fluorescein (unlabeled with Cy3B-labeled protein)
[6] = molecular target: T3, random peptide (scrambled pVIc); experiment: FP; scrambled pVIc; does not slide on DNA; conditions: tags: Cy3B at Cys5'; label: 5'-fluorescein (unlabeled with Cy3B-labeled protein)

Binder	binding result [1]	Kd [2]	Kd [3]	Kd [4]	Kd [5]	Kd [6]
18-mer dsDNA (dsDNA) DNA 1: CAGGAAACAGCTATGACC DNA 2: GGTCATAGCTGTTTCCTG	no binding	35 nM	–	–	–	–
12-mer dsDNA (dsDNA) DNA 1: GACGACTAGGAT DNA 2: ATCCTAGTCGTC	–	–	264 nM	55 nM	5 nM	646 nM
